One may read the IC50 as the point on the concentration scale where inhibition reaches its midpoint.

The source of these data is patent US20250129404A1, “RAPID, COLORIMETRIC ASSAY TO DETECT ACETYLTRANSFERASE ACTIVITY IN BIOLOGICAL SAMPLES” (THE FEINSTEIN INSTITUTES FOR MEDICAL RESEARCH, priority 2023, published 2025).

Data set [1] deals with T1, recombinant human ChAT (rChAT) (Homo sapiens, UniProt P28329).
T1 construct: recombinant human ChAT corresponding to residue 119-748; His tag (N-histidine tag) (N); made in house; host or cells: E. coli BL21-Gold (DE3)
T1 sequence (P28329 119-748): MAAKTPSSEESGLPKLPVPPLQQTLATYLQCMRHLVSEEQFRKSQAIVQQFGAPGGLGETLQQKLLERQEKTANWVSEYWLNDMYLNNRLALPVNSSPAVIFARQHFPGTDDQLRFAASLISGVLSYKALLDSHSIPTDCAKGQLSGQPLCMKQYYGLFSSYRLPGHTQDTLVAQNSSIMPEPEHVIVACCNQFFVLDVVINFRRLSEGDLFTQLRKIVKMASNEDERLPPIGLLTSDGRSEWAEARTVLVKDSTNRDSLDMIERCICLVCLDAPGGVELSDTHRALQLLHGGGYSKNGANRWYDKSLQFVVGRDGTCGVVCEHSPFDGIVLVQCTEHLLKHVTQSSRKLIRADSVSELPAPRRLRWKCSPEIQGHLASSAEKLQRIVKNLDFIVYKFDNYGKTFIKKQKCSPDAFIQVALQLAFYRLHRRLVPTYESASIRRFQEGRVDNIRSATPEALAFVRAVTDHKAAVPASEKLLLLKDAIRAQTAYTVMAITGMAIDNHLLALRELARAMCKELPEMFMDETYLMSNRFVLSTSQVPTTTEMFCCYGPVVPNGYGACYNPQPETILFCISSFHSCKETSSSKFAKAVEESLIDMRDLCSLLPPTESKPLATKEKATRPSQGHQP
Description: Choline acetyltransferase (ChAT) colorimetric activity assay. It counts as biochemical. On the procedure:
Recombinant ChAT protein and ChAT PEGylation. All recombinant ChAT (rChAT) protein used was produced as described previously (10). Briefly, recombinant human ChAT corresponding to residue 119-748 (EC2.3.1.6, UnitProt 28329-3) with a N-histidine tag was expressed in E. coli BL21-Gold (DE3) cells and purified using high affinity Ni-charged columns. The purified recombinant ChAT was dialyzed at 4° C. in buffer containing 0.2×PBS, 10% glycerol and 0.5 mM TCEP (tris(2-carboxyethyl) phosphine), and subjected to extensive Triton X-114 extraction to remove contaminating endotoxins. After purification, PEGylation was carried out using MS (PEG) 12 reagent to extend the plasma half-life of the enzyme (10). Following PEGylation, the protein was dialyzed in buffer and once again extracted with Triton-X-114 to remove contaminating endotoxins. A Bradford protein assay (Bio-Rad) was used to determine rChAT protein concentration. Commercial recombinant ChAT protein was purchased from My BioSource.
Choline Acetyltransferase activity assay. An assay was developed to measure ChAT activity using an adapted version of the colorimetric assay (Reactions 1-3) (13).
Briefly, biological samples and choline chloride standards are diluted in assay buffer (containing 10 mM Tris-HCl, 150 mM NaCl, 1 mM EDTA, and 0.05% Triton X-100). 100 μl of each standard and 40 μl of each sample are added in triplicate to a 96-well plate. […] The assay is developed by addition of 150 μL of 3′3′5′5′ Tetramethylbenzidine (TMB) to all wells, and the plate is immediately analyzed spectrophotometrically at 650 nm. ChAT Activity is determined from the interpolated amount of choline depleted during the reaction, divided by the reaction time and sample volume, and multiplied by the sample dilution factor (Equation 1). In all biological samples, ChAT activity is normalized to total protein concentration, measured using Bradford protein assay (Bio-Rad) and is represented as nmol/min/mg of total protein. […]

Another data set has as its system TNF. Description: Acute endotoxemia (LPS), TNF by ELISA. In kind it is in vivo, mouse. The note with it: 1 mg/kg i.p. 30 min prior to 0.3 mg/kg LPS, 90 min after LPS. On the procedure: Endotoxemia. Lipopolysaccharide (LPS, Escherichia coli 0111: B4; Sigma) was sonicated for 30 min, vortexed and administered intraperitoneally (LD50 7 mg/kg). Animals were euthanized by CO2 asphyxiation 90 min post-LPS administration and blood was collected by cardiac puncture using heparinized syringes. Blood samples were kept on ice and centrifuged for 10 minutes at 5000 g. Plasma TNF levels were quantified using a commercially available ELISA (Invitrogen). Plasma total protein concentration was determined using a Bradford Protein Assay (Bio-Rad). Sepsis scores were determined at respective timepoints up to 72 hours following endotoxin administration as described previously (19), where a maximum score of 28 per mouse denotes the greatest clinical sickness score.
Administration of PEG-ChAT and Anti-ChAT Neutralizing Antibody. Pegylated recombinant ChAT protein or a custom made monoclonal anti-ChAT antibody (GenScript) was administered intraperitoneally at a 1 mg/kg dose 30 minutes prior to LPS administration. Acute endotoxemia was induced with a dose of 0.3 mg/kg LPS. Animals were returned to their home cages and euthanized 90 minutes after LPS administration.
On the technique in general: In an ELISA, binding on a coated surface is turned into a signal by an enzyme label.

In data set [2] the test system is DSS-induced experimental colitis in C57Bl/6 male mice. The data set is described as follows: DSS colitis model. It counts as in vivo, mouse. The note with it: for histological damage (inflammation severity, crypt damage, extent of inflammation): blinded H&E scoring, day 14 (FIG. 4E-F). On the procedure: DSS Colitis Model. DSS (DSS salt, colitis grade (MW: 36000-50000), MP Biomedicals, CA) was added to the drinking water in a final concentration of 3% (wt/vol) for 7 days. The water was changed to regular water on day 8 and maintained till the end of the experiment. Survival and the disease activity index (DAI) were evaluated daily in a blinded manner. On day 14, mice were euthanized under CO2 asphyxiation and blood and tissue were collected. Colons were removed, cleaned, and sectioned longitudinally. The luminal contents were removed with cold phosphate buffered saline (PBS). Starting from the most distal end (rectum) the colon was rolled with luminal side facing upward, resulting in a “Swiss roll” with the distal end in the center and the proximal colon in the outer side of the roll. The Swiss roll was held together with a small pin and placed in 10% buffered formalin overnight at 4° C. The fixed tissue was then embedded in paraffin, sectioned at 10 μm and stained with hematoxylin and eosin. Histological analysis was carried out in a blinded manner by three independent researchers. The degree of colon inflammation was scored under the light microscope (Zeiss, Germany) using the following criteria: inflammation severity (0—none; 1—mild; 2—moderate; 3—severe), inflammation extent (0—none; 1—mucosal; 2—mucosal and submucosal; 3—transmural), Crypt damage (0—none; 1—basal, ⅓ damaged; 2—basal, ⅔/damaged; 3—crypt loss), damage distribution (0-0%; […]; 3-51-75%; 4-76-100%). Each mouse tissue was scored over 6 different sites of the colon. Serum cytokine levels (IL-6, TNFα and MCP-1) were analyzed using mouse V-Plex Biomarker Group 1 array, and the assay was performed according to the manufacturer's instructions.

Data set [3] has as its target T2, recombinant human ChAT (rChAT), substrate choline (Homo sapiens, UniProt P28329).
T2 construct: recombinant human ChAT corresponding to residue 119-748; His tag (N-histidine tag) (N); made in house; host or cells: E. coli BL21-Gold (DE3)
T2 sequence (P28329 119-748): T1 sequence (P28329 119-748)
The data set is described as follows: Michaelis-Menten kinetic constants, Coenzyme A detection assay. It counts as biochemical. The note with it: rChAT 2 μg/mL; Michaelis-Menten / Lineweaver Burke (FIG. 7C-D). On the procedure: Determination of Michaelis-Menten kinetic constants. To determine the Km constants for rChAT samples, a previously published Coenzyme A detection assay was used (12). Briefly, Coenzyme A standard was diluted in assay buffer. 100 μl of each standard and 40 μl of each sample was added to the 96-well plate in triplicate. 60 μl of Cocktail A was added to all sample wells. Immediately, 50 μl of Cocktail B was added to all sample and standard wells. The plate was immediately quantitated spectrophotometrically at 324 nm every 30 seconds for 30 minutes. Enzyme velocity was quantified as CoA formed (nmol/min/ml).
Data analysis and statistics. Data were analyzed using Graphpad Prism 9.0 software using two-tailed unpaired […] for comparisons between 2 groups or two-way ANOVA or mixed-effects model followed with Šídák's multiple comparisons test for comparisons of 3 or more groups. Michaelis Menten kinetic constants were determined using the Michaelis-Menten approximation to calculate Km and Vmax from a velocity vs. substrate relationship. Correlation coefficients were calculated using a nonparametric Spearman Correlation. For all analyses, P≤0.05 was considered statistically significant.

For a further data set, the system named is hypertensive animals. The settings on record: background statement; cited from earlier work.

Turning to `C[N+](C)(C)CCC(=O)c1cccc2ccccc12` [alpha-NETA, reference compound], the 50% inhibitory concentration (IC50) in data set [1] (preincubation of 0.4 mg/mL rChAT with inhibitor, room temperature 30 minutes (FIG. 7E)) is 148 nM.

B1: PEG-ChAT: recombinant ChAT PEGylated using MS (PEG) 12 reagent (conjugate, UniProt P28329 1-748, looked up)
Choline O-acetyltransferase: MGLRTAKKRGLGGGGKWKREEGGGTRGRREVRPACFLQSGGRGDPGDVGGPAGNPGCSPHPRAATRPPPLPAHTPAHTPEWCGAASAEAAEPRRAGPHLCIPAPGLTKTPILEKVPRKMAAKTPSSEESGLPKLPVPPLQQTLATYLQCMRHLVSEEQFRKSQAIVQQFGAPGGLGETLQQKLLERQEKTANWVSEYWLNDMYLNNRLALPVNSSPAVIFARQHFPGTDDQLRFAASLISGVLSYKALLDSHSIPTDCAKGQLSGQPLCMKQYYGLFSSYRLPGHTQDTLVAQNSSIMPEPEHVIVACCNQFFVLDVVINFRRLSEGDLFTQLRKIVKMASNEDERLPPIGLLTSDGRSEWAEARTVLVKDSTNRDSLDMIERCICLVCLDAPGGVELSDTHRALQLLHGGGYSKNGANRWYDKSLQFVVGRDGTCGVVCEHSPFDGIVLVQCTEHLLKHVTQSSRKLIRADSVSELPAPRRLRWKCSPEIQGHLASSAEKLQRIVKNLDFIVYKFDNYGKTFIKKQKCSPDAFIQVALQLAFYRLHRRLVPTYESASIRRFQEGRVDNIRSATPEALAFVRAVTDHKAAVPASEKLLLLKDAIRAQTAYTVMAITGMAIDNHLLALRELARAMCKELPEMFMDETYLMSNRFVLSTSQVPTTTEMFCCYGPVVPNGYGACYNPQPETILFCISSFHSCKETSSSKFAKAVEESLIDMRDLCSLLPPTESKPLATKEKATRPSQGHQP
modifications: PEGylated with MS(PEG)12
notes: recombinant ChAT PEGylated using MS (PEG) 12 reagent
Consider B1, for which, in the data set on TNF, the “serum TNF vs vehicle” value was “significantly attenuates” and the “spleen TNF vs vehicle” value was “decrease”. In addition, the “serum TNF vs vehicle” value with TNF (listed as PEG-ChAT antibody) is “significantly ameliorated”. Moreover, the “disease activity index (DAI) vs vehicle” value in data set [2] (1 mg/kg i.p. twice daily from day 7, from day 9 (FIG. 4C)) is on record as “significant reduction”. Also, the severity of colitis entry in data set [2] (1 mg/kg i.p. twice daily from day 7 to day 14) is recorded as “significantly reduces”. Further, in data set [2] (1 mg/kg i.p. twice daily from day 7 to day 14 (FIG. 4B)), the “weight loss vs vehicle” value is listed as “significant reduction”. The “histological damage (inflammation severity, crypt damage, extent of inflammation)” value in data set [2] is given as “attenuates”. In data set [2] (day 14 (FIG. 4D)), the colon length entry is given as “significantly improves”. In addition, the “circulating IL-6 vs vehicle” value in data set [2] (serum, day 14 (FIG. 5A)) was “significantly reduced”. In addition, the “circulating TNF vs vehicle” value in data set [2] (serum, day 14 (FIG. 5B)) is reported as “significantly reduced”. Also, in data set [2] (serum, day 14 (FIG. 5C)), the “circulating MCP-1 vs vehicle” value is “significantly reduced”.

B2: rChAT: recombinant human ChAT residue 119-748 with N-histidine tag, expressed in E. coli (protein, UniProt P28329 1-748, looked up)
Choline O-acetyltransferase: B1 Choline O-acetyltransferase
As to B2, in data set [3], the Vmax is on record as 0.05 Δ CoA (nmol/min). For the same molecule, the blood pressure entry in the data set on hypertensive animals is reported as “normalizes”. For the same molecule, the “detected activity after thermal denaturing, in comparison to native preparation” value in data set [1] (70° C. for 30 minutes (FIG. 7F), P<0.01) is “significantly reduced”. Also, the “enzymatic activity compared to a commercially available ChAT” value in data set [1] (FIG. 7B, P<0.01) is on record as “significant increase”. Further, the “histological damage (inflammation severity, crypt damage, extent of inflammation)” value in data set [2] was “reduced”.
